Target: endogenous CD28 (human, on Jurkat cells and primary T lymphocytes) (human) (UniProt P10747)
Test: cell-based or functional assay

- % of dead cells, 3G6-CD28 transduced T lymphocytes, OKT3/28.2, day 3 (trypan blue): 10%
- % of dead cells, NTP transduced T lymphocytes, OKT3/28.2, day 6 (trypan blue): 15%
- IL-2 secretion with PMA and ionomycin (ELISA, 24 hours), Jurkat-NTP: 960 pg/mL
- IL-2 secretion with PMA and ionomycin (ELISA, 24 hours), both cell populations: 3 fold
Substance: anti-CD28 Mab 28.2 (antibody)

Source: patent US20020018783A1
